# Experimental data as given in US20260242419A1, “A CYCLIC PEPTIDE FOR TRAPPING INTERLEUKIN-1 BETA” (Merck Sharp & Dohme LLC, priority 2023, published 2026).
# Non-standard residues stand in square brackets, D forms with d. No end group written: not given here. Phe(4-(5-CO2H-2-pyrimidyl)) = N[C@@H](Cc1ccc(-c2ncc(C(=O)O)cn2)cc1)C(=O)O; dPro(4R-(4-pyridylmethyl)) = O=C(O)[C@H]1C[C@@H](Cc2ccncc2)CN1; Trp(βS-Me,4-F) = C[C@@H](c1c[nH]c2cccc(F)c12)[C@H](N)C(=O)O; Bip(4'-CONH2) = NC(=O)c1ccc(-c2ccc(C[C@H](N)C(=O)O)cc2)cc1; Bip(4'-COOH) = N[C@@H](Cc1ccc(-c2ccc(C(=O)O)cc2)cc1)C(=O)O; Ala(1-bicyclo(1.1.1)pentyl) = N[C@@H](CC12CC(C1)C2)C(=O)O; Ala(pyrimidin-5-yl) = N[C@@H](Cc1cncnc1)C(=O)O; Phe(4-COOH) = N[C@@H](Cc1ccc(C(=O)O)cc1)C(=O)O; Pro(cis-4-F) = O=C(O)[C@@H]1C[C@H](F)CN1; Ala(4-THP) = N[C@@H](CC1CCOCC1)C(=O)O; cisHyp = O=C(O)[C@@H]1C[C@H](O)CN1; 4Pal = N[C@@H](Cc1ccncc1)C(=O)O; aThr = C[C@H](O)[C@H](N)C(=O)O; αMeD = C[C@](N)(CC(=O)O)C(=O)O; d(αMeS) = C[C@@](N)(CO)C(=O)O; Dab = NCC[C@H](N)C(=O)O; Aib = CC(C)(N)C(=O)O; Sar = CNCC(=O)O
# B1: SEQ ID NO: 198 (peptide)
# peptide: [Phe(4-(5-CO2H-2-pyrimidyl))][Ala(1-bicyclo(1.1.1)pentyl)][Phe(4-COOH)]G[Pro(cis-4-F)][SbMcW4F][Aib]SW[Aib][Ala(pyrimidin-5-yl)]Q[Dab]G[dPro(4R-(4-pyridylmethyl))]
# modifications: lactam (positions not given here); also: macrolactam ring, closure sites not given here
# B2: SEQ ID NO: 199 (peptide)
# peptide: cyclo([Bip(4'-COOH)][4Pal][Phe(4-COOH)]G[cisHyp][Trp(βS-Me,4-F)][Aib]SW[αMeD][Ala(4-THP)]QSG[dPro(4R-(4-pyridylmethyl))])
# modifications: ring closure inferred; not fully specified (bridges); printed as Bip4CO2H-4Pal-Phe4COOH-G-Proc4OH-SbMeW4F-Aib-S-W-aMeD-AlaTHP4-Q-S-G-dProc4CH24Pal, cyclic (macrolactam)
# B3: SEQ ID NO: 200 (peptide)
# peptide: cyclo([Bip(4'-COOH)][4Pal][Phe(4-COOH)]G[Pro(cis-4-F)][Trp(βS-Me,4-F)][Aib]SW[αMeD][Ala(4-THP)]Q[Dab]G[dPro(4R-(4-pyridylmethyl))])
# modifications: ring closure inferred; not fully specified (bridges); printed as Bip4CO2H-4Pal-Phe4COOH-G-Proc4F-SbMeW4F-Aib-S-W-aMeD-AlaTHP4-Q-Dab-G-dProc4CH24Pal, cyclic (macrolactam)
# B4: SEQ ID NO: 201 (peptide)
# peptide: cyclo([Bip(4'-COOH)][4Pal][Phe(4-COOH)]G[cisHyp][Trp(βS-Me,4-F)][Aib]SW[αMeD][Ala(4-THP)]Q[Dab]G[dPro(4R-(4-pyridylmethyl))])
# modifications: ring closure inferred; not fully specified (bridges); printed as Bip4CO2H-4Pal-Phe4COOH-G-Proc4OH-SbMeW4F-Aib-S-W-aMeD-AlaTHP4-Q-Dab-G-dProc4CH24Pal, cyclic (macrolactam)
# B5: SEQ ID NO: 202 (peptide)
# peptide: cyclo([Bip(4'-COOH)][Ala(1-bicyclo(1.1.1)pentyl)][Phe(4-COOH)]G[Pro(cis-4-F)][Trp(βS-Me,4-F)][Aib]SW[αMeD][aThr]Q[Dab]G[dPro(4R-(4-pyridylmethyl))])
# modifications: ring closure inferred; not fully specified (bridges); printed as Bip4CO2H-AlaPent-Phe4COOH-G-Proc4F-SbMeW4F-Aib-S-W-aMeD-alT-Q-Dab-G-dProc4CH24Pal, cyclic (macrolactam)
# B6: SEQ ID NO: 203 (peptide)
# peptide: cyclo([Bip(4'-COOH)][Ala(1-bicyclo(1.1.1)pentyl)][Phe(4-COOH)]G[Pro(cis-4-F)][Trp(βS-Me,4-F)][Aib]SW[αMeD]VQ[Dab]G[dPro(4R-(4-pyridylmethyl))])
# modifications: ring closure inferred; not fully specified (bridges); printed as Bip4CO2H-AlaPent-Phe4COOH-G-Proc4F-SbMeW4F-Aib-S-W-aMeD-V-Q-Dab-G-dProc4CH24Pal, cyclic (macrolactam)
# B7: SEQ ID NO: 204 (peptide)
# peptide: cyclo([Bip(4'-COOH)][Ala(1-bicyclo(1.1.1)pentyl)][Phe(4-COOH)]G[Pro(cis-4-F)][Trp(βS-Me,4-F)][Aib]SW[d(αMeS)][Ala(4-THP)]Q[Dab]G[dPro(4R-(4-pyridylmethyl))])
# modifications: ring closure inferred; not fully specified (bridges); printed as Bip4CO2H-AlaPent-Phe4COOH-G-Proc4F-SbMeW4F-Aib-S-W-daMeS-AlaTHP4-Q-Dab-G-dProc4CH24Pal, cyclic (macrolactam)
# B8: SEQ ID NO: 205 (peptide)
# peptide: cyclo([Bip(4'-COOH)][4Pal][Phe(4-COOH)]G[Pro(cis-4-F)][Trp(βS-Me,4-F)][Aib]SW[Aib][Ala(pyrimidin-5-yl)]Q[Dab][Sar][dPro(4R-(4-pyridylmethyl))])
# modifications: ring closure inferred; not fully specified (bridges); printed as Bip4CO2H-4Pal-Phe4COOH-G-Proc4F-SbMeW4F-Aib-S-W-Aib-PyrimAla-Q-Dab-Sar-dProc4CH24Pal, cyclic (macrolactam)
# B9: SEQ ID NO: 206 (peptide)
# peptide: cyclo([Bip(4'-COOH)][4Pal][Phe(4-COOH)]G[Pro(cis-4-F)][Trp(βS-Me,4-F)][Aib]SW[d(αMeS)][Ala(pyrimidin-5-yl)]Q[Dab][Sar][dPro(4R-(4-pyridylmethyl))])
# modifications: ring closure inferred; not fully specified (bridges); printed as Bip4CO2H-4Pal-Phe4COOH-G-Proc4F-SbMeW4F-Aib-S-W-daMeS-PyrimAla-Q-Dab-Sar-dProc4CH24Pal, cyclic (macrolactam)
# B10: SEQ ID NO: 207 (peptide)
# peptide: cyclo([Bip(4'-COOH)][4Pal][Phe(4-COOH)]G[cisHyp][Trp(βS-Me,4-F)][Aib]SW[d(αMeS)][Ala(4-THP)]Q[Dab][Sar][dPro(4R-(4-pyridylmethyl))])
# modifications: ring closure inferred; not fully specified (bridges); printed as Bip4CO2H-4Pal-Phe4COOH-G-Proc4OH-SbMeW4F-Aib-S-W-daMeS-AlaTHP4-Q-Dab-Sar-dProc4CH24Pal, cyclic (macrolactam)
# B11: SEQ ID NO: 208 (peptide)
# peptide: cyclo([Bip(4'-COOH)][4Pal][Phe(4-COOH)]G[Pro(cis-4-F)][Trp(βS-Me,4-F)][Aib]SW[αMeD][Ala(4-THP)]Q[Dab][Sar][dPro(4R-(4-pyridylmethyl))])
# modifications: ring closure inferred; not fully specified (bridges); printed as Bip4CO2H-4Pal-Phe4COOH-G-Proc4F-SbMeW4F-Aib-S-W-aMeD-AlaTHP4-Q-Dab-Sar-dProc4CH24Pal, cyclic (macrolactam)
# B12: SEQ ID NO: 209 (peptide)
# peptide: cyclo([Bip(4'-COOH)][4Pal][Phe(4-COOH)]G[cisHyp][Trp(βS-Me,4-F)][Aib]SW[αMeD][Ala(pyrimidin-5-yl)]Q[Dab][Sar][dPro(4R-(4-pyridylmethyl))])
# modifications: ring closure inferred; not fully specified (bridges); printed as Bip4CO2H-4Pal-Phe4COOH-G-Proc4OH-SbMeW4F-Aib-S-W-aMeD-PyrimAla-Q-Dab-Sar-dProc4CH24Pal, cyclic (macrolactam)
# B13: SEQ ID NO: 210 (peptide)
# peptide: cyclo([Bip(4'-COOH)][4Pal][Phe(4-COOH)]G[cisHyp][Trp(βS-Me,4-F)][Aib]SW[αMeD][Ala(4-THP)]Q[Dab][Sar][dPro(4R-(4-pyridylmethyl))])
# modifications: ring closure inferred; not fully specified (bridges); printed as Bip4CO2H-4Pal-Phe4COOH-G-Proc4OH-SbMeW4F-Aib-S-W-aMeD-AlaTHP4-Q-Dab-Sar-dProc4CH24Pal, cyclic (macrolactam)
# B14: SEQ ID NO: 211 (peptide)
# peptide: cyclo([Bip(4'-COOH)][4Pal][Phe(4-COOH)]G[Pro(cis-4-F)][Trp(βS-Me,4-F)][Aib]SW[Aib][Ala(4-THP)]Q[Dab]G[dPro(4R-(4-pyridylmethyl))])
# modifications: ring closure inferred; not fully specified (bridges); printed as Bip4CO2H-4Pal-Phe4COOH-G-Proc4F-SbMeW4F-Aib-S-W-Aib-AlaTHP4-Q-Dab-G-dProc4CH24Pal, cyclic (macrolactam)
# B15: SEQ ID NO: 212 (peptide)
# peptide: cyclo([Bip(4'-COOH)][4Pal][Phe(4-COOH)]G[cisHyp][Trp(βS-Me,4-F)][Aib]SW[Aib][Ala(4-THP)]Q[Dab]G[dPro(4R-(4-pyridylmethyl))])
# modifications: ring closure inferred; not fully specified (bridges); printed as Bip4CO2H-4Pal-Phe4COOH-G-Proc4OH-SbMeW4F-Aib-S-W-Aib-AlaTHP4-Q-Dab-G-dProc4CH24Pal, cyclic (macrolactam)
# B16: SEQ ID NO: 213 (peptide)
# peptide: cyclo([Bip(4'-COOH)][4Pal][Phe(4-COOH)]G[cisHyp][Trp(βS-Me,4-F)][Aib]SW[d(αMeS)][Ala(4-THP)]Q[Dab]G[dPro(4R-(4-pyridylmethyl))])
# modifications: ring closure inferred; not fully specified (bridges); printed as Bip4CO2H-4Pal-Phe4COOH-G-Proc4OH-SbMeW4F-Aib-S-W-daMeS-AlaTHP4-Q-Dab-G-dProc4CH24Pal, cyclic (macrolactam)
# B17: SEQ ID NO: 215 (peptide)
# peptide: cyclo([Bip(4'-CONH2)][4Pal][Phe(4-COOH)]G[Pro(cis-4-F)][Trp(βS-Me,4-F)][Aib]SW[d(αMeS)][Ala(4-THP)]Q[Dab]G[dPro(4R-(4-pyridylmethyl))])
# modifications: ring closure inferred; not fully specified (bridges); printed as Bip4CONH2-4Pal-Phe4COOH-G-Proc4F-SbMeW4F-Aib-S-W-daMeS-AlaTHP4-Q-Dab-G-dProc4CH24Pal, cyclic (macrolactam)
# Molecular target: Recombinant human IL-1β (BioLegend 579404) (human, UniProt P01584 117-269)
# Assay: cell-based or functional assay
row,MRC5 IC50 [nM],Binder
1,0.024,B1
2,0.032,B2
3,0.014,B3
4,0.019,B4
5,0.013,B5
6,0.016,B6
7,0.017,B7
8,0.028,B8
9,0.022,B9
10,0.044,B10
11,0.015,B11
12,0.034,B12
13,0.029,B13
14,0.019,B14
15,0.029,B15
16,0.021,B16
17,0.01,B17
